According to the supplement of paper PMC9170038:

Test system: MS2 coat protein
Assay: apparent KD of MS2 coat protein; higher = weaker reporter binding
Details: Eterna round: R107
Summary of the method: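 Apparent KD per design is the median of normalised cluster binding-curve fits. Designed RNA switches transcribed on-chip from Illumina sequencing clusters were titrated with SNAP-549-labelled MS2 coat protein in twofold steps from 0.7 or 1.5 nM to 3 µM, with 0.8–1.5 h down to 10–20 min per step. Buffer: 100 mM Tris-HCl pH 7.5, 80 mM KCl, 4 mM MgCl2, without or with constant ligand.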

[1] = input ligand: theophylline 20 uM
[2] = input ligand: tryptophan 2.4 mM
[3] = input ligand: theophylline 2 mM

| Sequence | apparent KD of MS2 coat protein (input ligand: arginine 13.2 mM) [nM] | apparent KD of MS2 coat protein [1] [nM] | apparent KD of MS2 coat protein [2] [nM] | apparent KD of MS2 coat protein (input ligand: none) [nM] | apparent KD of MS2 coat protein [3] [nM] |
| --- | --- | --- | --- | --- | --- |
| CGUCAACAUGAGGAUCACCCAUGUUUCGAUACCAGUGACCCUCUCCACCCUUGGCAGCGAGCGCCCGCGCCUGAUAAAUCUUCUA [theeternabot_sameState_MS2_Theo_A_18] | 13.5 | 16.4 | 14.1 |  |  |
| UGUAUGUGAUCUGAUACCAGAGUGAAUAAACCUGAGGAUCACCCUGGUACGCGAAAGCGACUCCCUUGGCAGCAGAUCGCAUACU | 127 | 108 | 156 | 163 | 21.8 |
| ACAAGAGGUGGAAGGAGCGGGAGACAUGAGGAUCACCCAUGUGAAGUUUCGAGAGGAUCAUCCCAGGUAGGUCGCCAUGUCGAAA [ojjomullin] | 199 | 84.1 | 49.7 | 41.7 | 228 |
| GCUACAUGAGGAUCACCCAUGUAUGCGAGUCGAGGACCGGUACGGCCGCCACUCGCUUAACAUGAGGAUCACCCAUGUUACUCGC [SSTA DOUBLE!!! :-D #19] | 56 | 106 |  |  | 88.7 |
| AUGCCUAGUGGAAGGAGCGAGGGUCUUCUCAACAUGAGGAUCACCCAUGUUCUUUUACACCCUCAGGUAGGUCGCCAUUGGGACA [Biraanve] | 25.1 | 85.2 | 61.2 | 55 | 44.6 |
| GCUACAUGAGGAUCACCCAUGUAUGCGAGCCGAGGACCGGUACGGCCGCCACUCGCUUAACAUGAGGAUCACCCAUGUUUCUCGG [SSTA DOUBLE!!! :-D #16] | 69.9 | 193 |  |  | 254 |
| CAAUUUAUAUGAAGGAGCGUCGAAAAUGGGUAAACAUGAGGAUCACCCAUGUAAAGGGAACGACAGGUAGGUCGCAUAUGGAUUG [AstromonsSSArgB#10] | 123 | 234 | 182 | 180 | 316 |
| AAUUCCGGGUCGGCCGCCACUGAUAUGGCGAGUCCUCGAACUUACAUGAGGAUCACCCAUGUAAACAGGACCGGGACCGCAUGGG [Exclusion Tryptophan B GF 23] | 16.3 | 28.4 |  |  | 20.4 |
| AAUUUCGUAGGUAAAAGUUUAGAAACUGAAGGAGCGUGGUAUUACACAGGUAGGUCGCAGAUUUUACAUGAGGAUCACCCAUGUU [JR_SSArginiA_Sub008] | 20.6 | 22 | 22.8 | 22.1 | 21.7 |
| ACAUGAGGAUCACCCAUGUAAAUAACGGAAGGAGCGUGCGAAAGCACAGGUAGGUCGCCGAUAUAAAUAUUGGGUAUUAUAUUAU [#28 Exclusion - Arginine A] | 17.8 | 47.1 | 28.8 | 31.8 | 29.1 |
| UCGUGUAUAUCGGAUACCAGUGAAAUCGAUACAUGAGGAUCACCCAUGUGAGAGGAUGUACACCCUUGGCAGCUGUAUAUAUCUA | 19.5 | 28.5 | 25.1 |  |  |
| CGAGUUCGCUGAUGGGCUACGUCAGGUGAUACCAGCCACUCCCGCGGCCCUUGGCAGCACAUGAGGAUCACCCAUGUAGAGCUUG [Esinve] | 12.2 | 28.6 | 15 |  |  |
| UUUGAUAGGACAGAUACCAGCGUGUUGUUGAACAUGAGGAUCACCCAUGUAGUGAUCAAGCGCCCUUGGCAGCUGGUUUGUUAGG [7.M] | 95.5 | 240 | 302 |  |  |
| CGCCACUCGAGUGAUCCUCACGAGUGGCUACGAGGACCGGUACGGCCGCCACUCGAAUUAACAUGAGGAUCACCCAUGUACUCCA [Brourdmod10] | 17.4 | 173 |  |  | 193 |
| AGACAUGAGGAUCACCCAUGUAGUAUGGAUACCAGAUCCAGAUUUAUCCCUUGGCAGCUGUGGUACAGCGUUGGAUCGCUCCUAG [Exclusion - Theophylline A (Freestyle 12)] | 22.3 | 34.6 | 27.8 |  |  |
| CUCAUCCACGCGGCCGCCACUAUAUUGUGGUGUGAAUGUGUCGUAAUACAUGAGGAUCACCCAUGUAGGACCGGGCGUGGAUGAG [#08 Exclusion Tryptophan B] | 19.3 | 30.9 |  |  | 37.4 |
| UUUUUCGCGGGUGAUACCAGCAAAGUUGUACUGGUCUGGUACAUGAGGAUCACCCAUGUUUGCCCUUGGCAGCGCUCGGGAGAAG [#22 Exclusion-TheophyllineB] | 33.2 | 39.2 | 23.5 | 21 | 32.7 |
| UAAUUUAUAGGGUAUAUCAGAUUAACUGAAGGAGCGUGGUAAUACACAGGUAGGUCGCAGAUGGAACAUGAGGAUCACCCAUGUU [JR_ExcArginiA_Sub016] | 17.6 | 27 | 21.2 | 20 | 25.7 |
| GGUUUAUAUAUAUAUAUAUAGAUUACUGAAGGAGCGGGAAAUAACCCAGGUAGGUCGCAGAGAUCCACAUGAGGAUCACCCAUGU [!0.E] | 37.1 | 55.3 | 36.8 | 40.2 | 54.3 |

| Sequence | apparent KD of MS2 coat protein (input ligand: arginine 13.2 mM) [nM] | apparent KD of MS2 coat protein [1] [nM] | apparent KD of MS2 coat protein [2] [nM] | apparent KD of MS2 coat protein (input ligand: none) [nM] | apparent KD of MS2 coat protein [3] [nM] |
| --- | --- | --- | --- | --- | --- |
| GCUACACAGGACCGUACUAAGGAUUCGCCUCGAGGACCGGUACGGCCGCCACUCGUUGCGCGACAUGAGGAUCACCCAUGUGUUC [theeternabot_exclusion_MS2_Trp_A_33] | 31.1 | 48.3 |  |  | 50.7 |
| AUCGUACCUGAUGAUACCAGCAUGUGAUCGUAACAUGAGGAUCACCCAUGUAAUCAGUGAUGCCCUUGGCAGCAUGAUCGGUACA [Same State - Theophylline B (Freestyle 14)] | 79.2 | 127 | 94.9 |  |  |
| AUAUUUAAUGGAAGGAGCGCGGAUAAUAAAGUGGGUAAACAUGAGGAUCACCCAUGUAAACCGCAGGUAGGUCGCCGAAAUAUAU [AstrosEXyARgB#8] | 56.6 | 49.4 | 47 | 39 | 57.6 |
| UCUCAAGGCCGCUCGGUGCUCCCUGGUGAUACCAGCCAUAUAUCCGGCCCUUGGCAGCACAUGAGGAUCACCCAUGUAGCAGGCG [Sorimaat] | 18 | 41.6 | 28.1 | 24 | 8.54 |
| CCAUGCAGGUCGGCCGCCACUACACACAUGAGGAUCACCCAUGUAGUUACUGGGUGAAGUGGCAGUAGGACCGGGACCUGCACAU [Brourdmod19] | 94.7 | 326 |  |  | 541 |
| AACAUGAGGAUCACCCAUGUUCUCGUGUACCGAGGACCGGUACGGCCGCCACUCGGUUCUCGCGAGGAUGGUCAAAGACUAUCCA [Omei Trp A SS B v5] | 22.6 | 25.1 |  |  | 24.7 |
| UGUAUGUGAUCUGAUACCAGCUUAAUAACAUGAGCAUCAGCCAUGUGGAGCGGAAACGCUAGCCCUUGGCAGCAGAUCGCAUACU [Denovo 11 #StaticStem #AlternativeMS2] | 101 | 79 | 129 | 143 | 13.2 |
| ACUCGGUAUGUCUAAUACCGAGAGUAUGAUACCAGUAUGGUGACAUACCCUUGGCAGCAUGGGACAUGAGGAUCACCCAUGUGUU [SSThA NP+V+V2 #10 Same Structure] | 119 | 465 | 588 |  |  |
| CUAUAAGUAACUGAUACCAGUGUACUGACAUGAGGAUCACCCAUGUUGGGUUUUGUUGUACACCCUUGGCAGCAGAAUCUUGUAG [AstrosExyTheB#15] | 46.5 | 62.3 | 54 |  |  |
| AGCCCGUGAGCGGCCGCCACUGGAGGCUUUGCGCGACAUGAGGAUCACCCAUGUGUGCCCGGCGUUAGGACCGGGUUCGCGUGGU [#1 Same State - Tryptophan B Attempt #18 (HarryS)] | 30 | 48.7 | 32.4 | 38.5 | 45.4 |
| UAUCCACAUGAGGAUCACCCAUGUAGGGAAGGAGCGGUGAUUUCACCAGGUAGGUCGCCUUACUGAGGAGAGCCGGUGGAAUCGU [Exclusion - Arginine A (Freestyle 31)] | 22.3 | 31.9 | 31.6 | 24.9 | 32.9 |
| GUAAAUGUGACGGAUACCAGCGUGUUGUAGAACAUGAGGAUCACCCAUGUAGUGAUCAUGCGCCCUUGGCAGCUGGUAUGUUUGU [7.aB] | 90.7 | 504 | 684 |  |  |
| ACUGACUUUACGGCCGCCACUCAUUGGCACGUGUCAUGUCAACAUGAGGAUCACCCAUGUAUGAUGAGGACCGGGUAAGGGCUGC [theeternabot_exclusion_MS2_Trp_B_2] | 8.71 | 13 |  |  | 11 |
| UAAUGUGAGAGAAGGAGCGGAGGUCUCGUUACAACAUGAGGAUCACCCAUGUAACGUACCGUCCAGGUAGGUCGCUCUCGGGCGC [lvacmullin] | 17.4 | 24.4 | 15.2 | 13.2 | 17.2 |
| GCUGUAAGUGCAGAUACCAGCGUGUUAUAUUUCUAAUGACAUGAGGAUCACCCAUGUAAAUGCCCUUGGCAGCUGCACUUACAGC [SSTHB #7] | 13.2 | 16.7 | 16.2 |  |  |
| GUACAUGAGGAUCACCCAUGUAUAGUUGAAGGAGCGACCAGAGGGUCAGGUAGGUCGCAGCACAUGAGGUAAGCCCGUGUAUGCU [#1 Exclusion - Arginine A Attempt #19 (Inspired by Pi)] | 30.7 | 59.1 | 32 | 50.6 | 35.1 |
| CCGUUAAAAUUCCAUUAUACAAUACCUGAAGGAGCGUAGGAAACUACAGGUAGGUCGCAGAUACAUGAGGAUCACCCAUGUACGG [SSAA #13] | 14.6 | 20.3 | 17.3 | 16.2 | 22.5 |
| CCCAGUUAUAACAAAGGAAUAAUACUCGAAGGAGCGUCAUAGUAGGCAGGUAGGUCGCGAGACAUGAGGAUCACCCAUGUAGAGA [qvvmullin] | 34.3 | 49.5 | 32.8 | 46 | 32.2 |
| CCUAUGCAGUCGGCCGCCACUGAGUCCUCAAUAAUAAAUUAAUAUACAUGAGGAUCACCCAUGUACAGGACCGGGACUGUAUAGG [Ex Tryptophan B 13] | 96.7 | 268 |  |  | 215 |
